Assay results: patent US20180264072A1

Columns and labels:
talin H1-H4 [1] = experiment: size exclusion chromatography; stoichiometry listed for the complex
talin H1-H4 [2] = experiment: ITC; A524 in the cell, talin H1-H4 as titrant
talin in HeLa cells = talin in HeLa cells (UniProt Q9Y490); experiment: cell-based or functional assay
talin H1-H4 [3] = experiment: isothermal titration calorimetry
talin H1-H4 [4] = experiment: isothermal titration calorimetry, cell talin H1-H4, titrant talin H46 (VBS3)
[5] = biological target: T1, vinculin in C2.7 mouse myoblast cells (mouse) (UniProt Q64727); experiment: cell-based or functional assay
T1 sequence: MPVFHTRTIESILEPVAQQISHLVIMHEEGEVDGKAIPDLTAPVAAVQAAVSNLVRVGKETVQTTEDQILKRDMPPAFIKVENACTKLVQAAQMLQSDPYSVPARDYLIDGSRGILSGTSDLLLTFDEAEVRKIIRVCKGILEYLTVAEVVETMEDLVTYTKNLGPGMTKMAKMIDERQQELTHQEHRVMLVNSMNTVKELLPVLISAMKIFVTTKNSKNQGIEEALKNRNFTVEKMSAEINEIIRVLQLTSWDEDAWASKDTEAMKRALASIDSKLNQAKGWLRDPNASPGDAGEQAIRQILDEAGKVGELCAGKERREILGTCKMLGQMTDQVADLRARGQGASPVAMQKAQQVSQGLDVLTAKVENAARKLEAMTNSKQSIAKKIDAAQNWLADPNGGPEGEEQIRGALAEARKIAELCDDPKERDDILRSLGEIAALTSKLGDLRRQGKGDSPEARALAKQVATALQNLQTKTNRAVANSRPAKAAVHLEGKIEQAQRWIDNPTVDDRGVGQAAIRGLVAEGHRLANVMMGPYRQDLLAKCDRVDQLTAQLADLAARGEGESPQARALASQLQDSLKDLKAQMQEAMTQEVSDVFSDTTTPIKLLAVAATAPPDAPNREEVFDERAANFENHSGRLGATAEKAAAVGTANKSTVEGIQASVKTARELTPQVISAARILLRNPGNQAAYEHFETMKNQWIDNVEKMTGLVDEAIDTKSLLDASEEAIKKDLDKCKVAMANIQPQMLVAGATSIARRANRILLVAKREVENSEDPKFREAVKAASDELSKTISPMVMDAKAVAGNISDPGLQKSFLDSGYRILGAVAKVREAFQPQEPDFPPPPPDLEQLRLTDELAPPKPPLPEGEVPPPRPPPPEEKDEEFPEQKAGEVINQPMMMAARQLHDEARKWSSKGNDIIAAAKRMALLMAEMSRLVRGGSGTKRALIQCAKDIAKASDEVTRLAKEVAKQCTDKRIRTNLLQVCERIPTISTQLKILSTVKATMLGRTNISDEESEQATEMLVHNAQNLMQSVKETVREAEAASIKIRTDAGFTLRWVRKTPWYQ

talin H1-H4 [6] = experiment: ITC; talin H1-H4 in the cell, IpaA VBS3 peptide as titrant
talin H1-H4 [7] = experiment: ITC; A483 in the cell, talin H1-H4 as titrant
talin H1-H4 [8] = experiment: ITC; HVD1:A483 equimolar complex in the cell, talin H1-H4 as titrant
talin H1-H4 [9] = experiment: size exclusion chromatography; stoichiometry listed for the ternary complex
talin H1-H4 [10] = experiment: ITC; talin H1-H4 in the cell, IpaA VBS1 peptide as titrant

talin H1-H4, sequence (P26039 482-636): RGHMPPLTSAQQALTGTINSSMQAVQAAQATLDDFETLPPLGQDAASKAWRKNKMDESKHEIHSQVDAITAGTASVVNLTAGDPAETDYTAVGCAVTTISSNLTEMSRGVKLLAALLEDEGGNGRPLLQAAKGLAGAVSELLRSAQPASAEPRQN
IpaA 524-633 (A524), sequence (P18010 524-633 limits assumed): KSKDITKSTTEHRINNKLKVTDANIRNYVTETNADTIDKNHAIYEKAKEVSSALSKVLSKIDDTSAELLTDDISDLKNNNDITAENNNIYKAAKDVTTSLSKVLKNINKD
A483:HVD1 complex, sequence (P18010 483-633 limits assumed): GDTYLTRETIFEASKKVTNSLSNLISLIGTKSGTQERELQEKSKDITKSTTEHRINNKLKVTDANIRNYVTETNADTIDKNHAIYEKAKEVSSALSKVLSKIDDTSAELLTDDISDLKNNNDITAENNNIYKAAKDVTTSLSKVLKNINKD
GFP-A483, sequence (P18010 483-633): as the sequence (P18010 483-633 limits assumed) above
IpaA 483-633 (A483), sequence (P18010 483-633 limits assumed): as above
talin in HeLa cells, sequence (Q9Y490 whole entry): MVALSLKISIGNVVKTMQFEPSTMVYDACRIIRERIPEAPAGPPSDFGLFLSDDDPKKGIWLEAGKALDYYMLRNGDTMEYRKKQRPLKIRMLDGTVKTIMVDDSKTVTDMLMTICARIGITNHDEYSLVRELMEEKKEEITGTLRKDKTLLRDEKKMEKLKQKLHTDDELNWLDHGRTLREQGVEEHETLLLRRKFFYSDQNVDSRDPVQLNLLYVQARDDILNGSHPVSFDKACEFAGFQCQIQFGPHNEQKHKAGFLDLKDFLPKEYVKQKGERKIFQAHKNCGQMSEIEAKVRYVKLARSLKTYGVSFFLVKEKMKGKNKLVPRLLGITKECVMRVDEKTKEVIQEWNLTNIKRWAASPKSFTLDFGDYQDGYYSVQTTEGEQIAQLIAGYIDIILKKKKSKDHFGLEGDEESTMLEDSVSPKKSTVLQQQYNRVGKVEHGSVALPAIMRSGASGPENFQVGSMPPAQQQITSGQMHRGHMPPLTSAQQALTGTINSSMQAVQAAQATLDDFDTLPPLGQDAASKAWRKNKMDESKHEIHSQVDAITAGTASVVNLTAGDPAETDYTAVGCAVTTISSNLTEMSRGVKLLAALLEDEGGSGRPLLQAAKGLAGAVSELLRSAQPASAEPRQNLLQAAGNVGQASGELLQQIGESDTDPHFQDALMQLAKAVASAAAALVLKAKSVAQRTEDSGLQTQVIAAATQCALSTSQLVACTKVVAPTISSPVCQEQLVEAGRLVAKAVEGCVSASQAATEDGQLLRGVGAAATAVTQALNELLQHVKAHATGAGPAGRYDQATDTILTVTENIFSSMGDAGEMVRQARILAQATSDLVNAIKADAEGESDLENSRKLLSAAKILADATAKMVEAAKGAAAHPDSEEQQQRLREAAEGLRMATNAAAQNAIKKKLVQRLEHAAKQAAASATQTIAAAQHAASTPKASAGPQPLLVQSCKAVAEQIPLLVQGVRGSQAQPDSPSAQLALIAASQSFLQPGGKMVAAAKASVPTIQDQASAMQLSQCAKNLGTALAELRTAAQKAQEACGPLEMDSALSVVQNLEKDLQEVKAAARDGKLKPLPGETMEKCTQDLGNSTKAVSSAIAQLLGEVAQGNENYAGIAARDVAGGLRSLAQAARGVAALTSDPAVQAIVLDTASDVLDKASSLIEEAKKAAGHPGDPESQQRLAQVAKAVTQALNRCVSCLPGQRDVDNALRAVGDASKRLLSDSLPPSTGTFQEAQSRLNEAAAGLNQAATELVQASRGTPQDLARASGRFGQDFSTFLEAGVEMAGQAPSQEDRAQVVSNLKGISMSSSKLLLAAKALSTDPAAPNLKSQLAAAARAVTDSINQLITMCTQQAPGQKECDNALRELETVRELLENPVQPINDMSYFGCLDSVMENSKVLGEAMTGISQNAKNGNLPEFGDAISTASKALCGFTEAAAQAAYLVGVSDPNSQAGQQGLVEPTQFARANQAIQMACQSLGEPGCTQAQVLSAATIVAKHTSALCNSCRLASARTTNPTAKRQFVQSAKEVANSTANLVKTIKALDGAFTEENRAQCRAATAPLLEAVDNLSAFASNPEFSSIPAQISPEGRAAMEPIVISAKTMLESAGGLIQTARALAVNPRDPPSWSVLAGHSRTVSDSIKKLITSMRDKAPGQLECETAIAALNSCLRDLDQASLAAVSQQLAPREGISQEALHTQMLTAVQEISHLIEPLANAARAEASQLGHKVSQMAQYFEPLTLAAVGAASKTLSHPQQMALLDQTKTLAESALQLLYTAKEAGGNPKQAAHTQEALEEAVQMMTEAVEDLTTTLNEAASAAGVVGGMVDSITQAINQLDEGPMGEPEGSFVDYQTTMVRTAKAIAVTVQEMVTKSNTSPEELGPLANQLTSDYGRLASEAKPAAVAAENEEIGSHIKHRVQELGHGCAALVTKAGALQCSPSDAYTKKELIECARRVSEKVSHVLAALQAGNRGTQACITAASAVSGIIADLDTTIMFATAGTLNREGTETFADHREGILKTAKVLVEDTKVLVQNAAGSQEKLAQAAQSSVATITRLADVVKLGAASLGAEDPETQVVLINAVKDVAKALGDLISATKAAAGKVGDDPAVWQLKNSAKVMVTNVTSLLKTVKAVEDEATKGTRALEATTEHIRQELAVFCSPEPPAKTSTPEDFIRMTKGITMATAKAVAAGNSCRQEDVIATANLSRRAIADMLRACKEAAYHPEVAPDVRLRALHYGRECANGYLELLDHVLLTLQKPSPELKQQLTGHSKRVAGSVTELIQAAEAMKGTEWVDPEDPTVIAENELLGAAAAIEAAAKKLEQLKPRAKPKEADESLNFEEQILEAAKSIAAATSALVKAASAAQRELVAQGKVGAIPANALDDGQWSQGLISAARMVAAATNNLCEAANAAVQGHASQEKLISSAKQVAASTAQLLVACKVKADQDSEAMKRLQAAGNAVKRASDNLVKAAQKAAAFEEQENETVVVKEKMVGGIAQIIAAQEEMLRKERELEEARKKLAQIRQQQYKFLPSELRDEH
IpaA full length, sequence (P18010 whole entry): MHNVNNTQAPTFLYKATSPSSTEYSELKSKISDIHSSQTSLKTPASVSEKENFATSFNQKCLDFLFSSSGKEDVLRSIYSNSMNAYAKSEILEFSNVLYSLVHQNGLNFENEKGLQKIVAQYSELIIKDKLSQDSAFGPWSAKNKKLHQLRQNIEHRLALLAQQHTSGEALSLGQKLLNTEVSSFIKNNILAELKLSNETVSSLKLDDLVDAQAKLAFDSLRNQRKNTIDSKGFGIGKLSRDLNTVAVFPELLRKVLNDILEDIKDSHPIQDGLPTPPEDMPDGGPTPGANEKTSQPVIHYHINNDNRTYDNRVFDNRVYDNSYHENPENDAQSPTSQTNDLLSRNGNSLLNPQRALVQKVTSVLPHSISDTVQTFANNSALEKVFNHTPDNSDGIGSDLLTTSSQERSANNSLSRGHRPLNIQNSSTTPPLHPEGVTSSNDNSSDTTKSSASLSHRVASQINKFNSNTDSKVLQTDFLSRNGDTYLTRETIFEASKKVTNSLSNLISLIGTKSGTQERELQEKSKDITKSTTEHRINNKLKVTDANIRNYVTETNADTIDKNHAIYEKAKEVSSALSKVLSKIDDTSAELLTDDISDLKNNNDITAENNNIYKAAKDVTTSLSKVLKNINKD

## IpaA 524-633 (A524) (from UniProt P18010 524-633)
Talin H1-H4 [1]
  stoichiometry (molar ratio of the complex (1:1)): 1
Talin H1-H4 [2]
  -TΔS: -3.47 kcal/mol
  Kd: 2.03 µM
  N (stoichiometry): 1.5
  ΔG: -7.45 kcal/mol
  ΔH: -3.98 kcal/mol

## IpaA full length (from UniProt P18010 1-633)
Talin in HeLa cells
  percentage of foci forming talin coat structures: 52%

## talin H46 (talin VBS3) α-helix (peptide)
Talin H1-H4 [3]
  -TΔS: 7.2 kcal/mol
  Kd: 0.06 µM
  ΔH: -17 kcal/mol
Talin H1-H4 [4]
  N: 0.92
  ΔG: -9.97 kcal/mol

## GFP-A483 (from UniProt P18010 483-633)
[5]
  adhesion stress σ=F/A at detachment, parallel plates: 6.5 nN/µm^2
  median cell surface: 1850 µm^2
  median time between two divisions (second group of GFP-A483 cells): 17.1 h
  median velocity of migration: 30.7 µm/hour
  rate of single-cell traction force generation (dF/dt), parallel plates: 0.4

## IpaA VBS3/TBS peptide
Talin H1-H4 [3]
  -TΔS: -1.53 kcal/mol
  Kd: 0.15 µM
  ΔG: -9.07 kcal/mol
Talin H1-H4 [6]
  -TΔS: -2.83 kcal/mol
  Kd: 0.175 µM
  N (stoichiometry): 0.893
  ΔG: -9.22 kcal/mol
  ΔH: -6.39 kcal/mol

## IpaA 483-633 (A483) (from UniProt P18010 483-633)
Talin H1-H4 [7]
  -TΔS: -3.8 kcal/mol
  Kd: 0.0249 µM
  N (stoichiometry): 1
  ΔG: -10 kcal/mol
  ΔH: -6.23 kcal/mol
Talin H1-H4 [1]
  stoichiometry (molar ratio of the complex (1:1)): 1

## A483:HVD1 complex (from UniProt P18010 483-633; P18206 1-258)
Talin H1-H4 [3]
  -TΔS: 1.37 kcal/mol
Talin H1-H4 [8]
  -TΔS: -1.37 kcal/mol
  N (stoichiometry): 0.459
  ΔG: -7.68 kcal/mol
  ΔH: -9.05 kcal/mol
Talin H1-H4 [9]
  stoichiometry: 1

## IpaA VBS1 peptide
Talin H1-H4 [10]
  -TΔS: -2.47 kcal/mol
  Kd: 15.2 µM
  N (stoichiometry): 1.22
  ΔG: -6.58 kcal/mol
  ΔH: -4.1 kcal/mol
